This is an account of results in patent US20100291106A1 (Novartis, published 2010).

Residue numbers refer to the chain shown, from its start.

For experiment [1], the target named is T1, cynomolgus complement C3b protein (cynomolgus monkey (Macaca fascicularis)). The experiment is described as follows: cell-based or functional assay.
Experiment [2] deals with T2, human complement C3b protein (human, UniProt P01024 23-667; P01024 749-1663). As to the kind of experiment: cell-based or functional assay.
T2 sequence (P01024 23-667 P314L, chain 1 of 2): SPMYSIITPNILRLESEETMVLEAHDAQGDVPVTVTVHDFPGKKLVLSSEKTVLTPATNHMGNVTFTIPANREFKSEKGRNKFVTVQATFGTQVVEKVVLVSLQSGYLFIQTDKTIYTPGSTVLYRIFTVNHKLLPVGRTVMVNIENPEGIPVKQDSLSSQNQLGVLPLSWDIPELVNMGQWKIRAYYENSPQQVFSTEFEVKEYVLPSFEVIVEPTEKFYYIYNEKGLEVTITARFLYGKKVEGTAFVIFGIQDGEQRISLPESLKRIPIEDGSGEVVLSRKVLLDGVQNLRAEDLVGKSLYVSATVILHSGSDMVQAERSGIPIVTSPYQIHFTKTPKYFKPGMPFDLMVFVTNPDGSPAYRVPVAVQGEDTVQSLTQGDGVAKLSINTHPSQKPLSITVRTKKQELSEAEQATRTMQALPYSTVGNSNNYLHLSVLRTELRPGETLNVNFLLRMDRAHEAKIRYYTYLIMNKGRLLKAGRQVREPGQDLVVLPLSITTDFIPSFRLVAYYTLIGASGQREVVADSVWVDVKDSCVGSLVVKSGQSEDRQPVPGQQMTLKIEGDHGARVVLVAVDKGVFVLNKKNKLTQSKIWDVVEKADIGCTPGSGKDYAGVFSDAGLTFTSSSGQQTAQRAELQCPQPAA
T2 sequence (P01024 749-1663, chain 2 of 2): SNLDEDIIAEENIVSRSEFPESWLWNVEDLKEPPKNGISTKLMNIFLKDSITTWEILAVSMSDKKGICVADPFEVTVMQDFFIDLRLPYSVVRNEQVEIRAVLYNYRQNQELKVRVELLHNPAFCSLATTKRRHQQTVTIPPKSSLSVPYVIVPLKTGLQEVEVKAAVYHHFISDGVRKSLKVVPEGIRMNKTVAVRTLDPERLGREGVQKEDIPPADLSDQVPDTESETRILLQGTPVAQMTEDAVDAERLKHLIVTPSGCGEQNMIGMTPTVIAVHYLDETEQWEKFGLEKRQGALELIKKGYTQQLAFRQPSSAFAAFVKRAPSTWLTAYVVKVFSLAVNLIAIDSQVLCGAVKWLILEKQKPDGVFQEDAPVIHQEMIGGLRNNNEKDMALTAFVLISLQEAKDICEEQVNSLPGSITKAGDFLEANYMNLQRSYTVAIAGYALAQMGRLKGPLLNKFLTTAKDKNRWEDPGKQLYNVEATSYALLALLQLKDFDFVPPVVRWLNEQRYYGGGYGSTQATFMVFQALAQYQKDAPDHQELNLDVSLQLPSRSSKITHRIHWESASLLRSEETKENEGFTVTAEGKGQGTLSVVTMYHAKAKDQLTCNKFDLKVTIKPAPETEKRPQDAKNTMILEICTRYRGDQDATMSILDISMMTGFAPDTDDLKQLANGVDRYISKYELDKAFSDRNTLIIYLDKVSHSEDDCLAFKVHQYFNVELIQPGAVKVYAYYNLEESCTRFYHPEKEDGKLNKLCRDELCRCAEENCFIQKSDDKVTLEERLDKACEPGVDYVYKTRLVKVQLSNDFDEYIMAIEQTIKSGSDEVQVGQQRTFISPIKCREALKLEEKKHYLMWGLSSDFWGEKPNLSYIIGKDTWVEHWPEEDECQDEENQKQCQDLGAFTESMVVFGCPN
In experiment [3] the target is T1, cynomolgus complement C3b protein. As to the kind of experiment: solution equilibrium titration (SET), ECL detection, Fab.
The target in experiment [4] is T2, human complement C3b protein. Described as above.
Experiment [5] deals with T1, cynomolgus complement C3b protein. As to the kind of experiment: SPR (Biacore), C3b captured by anti-C3d antibody, Fab as analyte.
In experiment [6] the target is T2, human complement C3b protein. Described as above.
The target of experiment [7] is T3, human C3d (human, UniProt P01024 1002-1303).
T3 construct: domain: C3d
T3 sequence (P01024 1002-1303 limits assumed): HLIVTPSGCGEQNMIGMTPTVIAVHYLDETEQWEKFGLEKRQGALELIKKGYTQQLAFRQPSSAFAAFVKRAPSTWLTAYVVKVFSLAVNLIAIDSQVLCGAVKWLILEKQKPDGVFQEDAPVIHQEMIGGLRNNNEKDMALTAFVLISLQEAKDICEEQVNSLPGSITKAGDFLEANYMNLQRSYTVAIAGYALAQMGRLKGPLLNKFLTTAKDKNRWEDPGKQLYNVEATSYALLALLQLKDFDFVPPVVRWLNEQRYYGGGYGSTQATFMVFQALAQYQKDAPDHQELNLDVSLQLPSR
The experiment is described as follows: cross reactivity, ELISA on C3d, anti-His detection. As to the method:
In order to determine whether the anti-C3b antibodies described herein can bind to complement pathway components iC3b and C3c, the following steps were performed: Directly add iC3b(complement Technologies A115), C3d (complement Technologies A117), or C3c (complement Technologies A116), at 2 μg/ml in Carbonate Buffer onto Coat Maxisorp plate Nunc (442404) at 100 μl per well. Seal plates and incubate at 4° C. overnight. Aspirate plates and wash 3 times with PBS/0.5% Tween 20. Block plates with Diluent (PBS, 4% BSA Fraction V (Fisher ICN16006980), 0.1% Tween 20 (Sigma P1379), 0.1% Triton X-100 (Sigma P234729)) and incubate for 2 h at room temperature or overnight at 4° C. Then wash plates once with PBS/0.5% Tween 20. Dilute Fabs at 100 nM and subsequent dilutions (or higher concentration if needed) in diluent and plate 100 μl per well. Incubate at room temperature for 1 h. Wash plates 3 times with PBS/0.5% Tween 20. Add 100 μl/well of anti-Histidine-HRP monoclonal detection antibody at 1:400 in diluent and incubate at room temperature for 1 h. Then wash 4 times with PBS/0.5% Tween 20. Add 100 μl of TMB substrate (Pierce 34028) and incubate at room temperature for up to 5 min. Add 50 μl of Stop solution (2N Sulfuric Acid) to each well and read plate at 450 nm and correct for plastic reading at 570 nm.

In experiment [8] the target is T4, human C5 (human, UniProt P01031 19-673; P01031 678-1676).
T4 construct: Captured by an anti-C5 antibody in the ELISA
T4 sequence (P01031 19-673 limits assumed, chain 1 of 2): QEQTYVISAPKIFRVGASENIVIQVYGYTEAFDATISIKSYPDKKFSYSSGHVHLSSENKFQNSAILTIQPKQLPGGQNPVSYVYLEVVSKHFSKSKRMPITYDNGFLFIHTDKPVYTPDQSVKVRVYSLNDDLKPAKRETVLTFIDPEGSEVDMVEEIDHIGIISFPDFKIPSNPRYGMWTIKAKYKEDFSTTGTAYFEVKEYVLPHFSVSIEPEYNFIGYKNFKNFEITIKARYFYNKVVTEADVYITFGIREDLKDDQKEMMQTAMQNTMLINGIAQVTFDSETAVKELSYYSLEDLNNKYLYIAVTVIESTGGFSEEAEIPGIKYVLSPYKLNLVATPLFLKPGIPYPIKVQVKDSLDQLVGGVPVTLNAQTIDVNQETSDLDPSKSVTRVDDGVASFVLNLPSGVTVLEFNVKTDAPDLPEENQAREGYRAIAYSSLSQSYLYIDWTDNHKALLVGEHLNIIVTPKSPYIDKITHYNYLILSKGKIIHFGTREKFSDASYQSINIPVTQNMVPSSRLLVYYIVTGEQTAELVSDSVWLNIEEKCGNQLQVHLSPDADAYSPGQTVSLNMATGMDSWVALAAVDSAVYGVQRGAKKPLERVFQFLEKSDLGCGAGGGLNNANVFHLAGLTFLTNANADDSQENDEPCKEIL
T4 sequence (P01031 678-1676 limits assumed, chain 2 of 2): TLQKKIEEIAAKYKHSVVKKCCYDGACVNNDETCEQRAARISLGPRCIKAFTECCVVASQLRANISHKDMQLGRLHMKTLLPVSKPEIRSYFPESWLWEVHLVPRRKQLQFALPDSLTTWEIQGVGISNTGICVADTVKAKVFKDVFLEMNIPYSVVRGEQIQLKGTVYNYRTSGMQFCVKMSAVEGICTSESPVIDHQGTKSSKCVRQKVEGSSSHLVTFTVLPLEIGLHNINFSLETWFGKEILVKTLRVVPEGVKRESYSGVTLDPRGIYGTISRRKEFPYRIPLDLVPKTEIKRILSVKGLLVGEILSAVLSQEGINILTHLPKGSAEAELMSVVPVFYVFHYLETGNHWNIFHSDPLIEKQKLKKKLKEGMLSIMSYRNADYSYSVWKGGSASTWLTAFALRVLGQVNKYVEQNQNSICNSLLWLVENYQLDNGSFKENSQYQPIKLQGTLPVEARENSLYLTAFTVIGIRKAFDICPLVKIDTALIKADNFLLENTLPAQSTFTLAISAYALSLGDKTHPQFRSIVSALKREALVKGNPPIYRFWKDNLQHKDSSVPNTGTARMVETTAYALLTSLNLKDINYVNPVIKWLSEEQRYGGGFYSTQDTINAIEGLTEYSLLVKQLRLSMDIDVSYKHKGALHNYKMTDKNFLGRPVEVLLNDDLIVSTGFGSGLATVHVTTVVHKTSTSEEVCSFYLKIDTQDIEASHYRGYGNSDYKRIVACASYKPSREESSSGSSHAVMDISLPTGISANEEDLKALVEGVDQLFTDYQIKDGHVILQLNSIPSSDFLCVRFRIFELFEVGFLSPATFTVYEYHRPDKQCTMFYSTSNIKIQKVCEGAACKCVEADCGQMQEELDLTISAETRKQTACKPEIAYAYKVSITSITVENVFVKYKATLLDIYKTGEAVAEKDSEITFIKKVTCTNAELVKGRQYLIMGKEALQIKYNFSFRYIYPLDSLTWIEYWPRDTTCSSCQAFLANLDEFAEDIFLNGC
The experiment is described as follows: cross reactivity, capture ELISA with anti-C5 capture antibody, anti-His detection.

The target of experiment [9] is T2, human complement C3b protein. The experiment is described as follows: cell-based or functional assay. This is another data set of the same source.
Experiment [10] shares this target. The experiment is described as follows: ELISA, C3b or C3 captured by anti-C3d antibody. As to the method: The C3b antibodies were examined to determine whether they were selective for binding to C3b relative to the C3b precursor C3. Briefly, binding selectivity for C3b was determined by performing the following steps. Coat Maxisorp plate Nunc (442404) with anti-C3d rabbit monoclonal (abcam 17453) at 2 μg/ml in Carbonate Buffer at 100 μl/well. Seal plates and incubate at 4° C. overnight. Aspirate plates and wash 3 times with PBS/0.5% Tween 20. Block plates with Diluent (PBS, 4% BSA Fraction V (Fisher ICN16006980), 0.1% Tween 20 (Sigma P1379), 0.1% Triton X-100 (Sigma P234729)) and incubate for 2 h at room temperature or overnight at 4° C. Then wash plates once with PBS/0.5% Tween 20. Dilute purified C3b (complement technologies A114 lot 21) and C3 (complement technologies A113c) at 1 μg/ml in diluent and plate 100 μl per well. Incubate for 1 h at room temperature. Then wash 3 times with PBS/0.5% Tween 20.
Dilute Fabs at 100 nM and subsequent dilutions (or higher concentration) in diluent and plate 100 μl per well. Incubate at room temperature for 1 h. Wash plates 3 times with PBS/0.5% Tween 20. Add 100 μl/well of anti-Histidine-HRP monoclonal detection antibody at 1:400 in diluent and incubate at room temperature for 1 h. Then wash 4 times with PBS/0.5% Tween 20. Add 100 μl of TMB substrate (Pierce 34028) and incubate at room temperature for up to 5 min. Add 50 μl of Stop solution (2N Sulfuric Acid) to each well and read plate at 450 nm and correct for plastic reading at 570 nm.

In experiment [11] the target is T1, cynomolgus complement C3b protein. The experiment is described as follows: SPR (Biacore T100), C3b captured by anti-C3d antibody, IgG as analyte, 1:1 model.
For experiment [12], the target named is T2, human complement C3b protein. Described as above.
For experiment [13] the target is unchanged. As to the kind of experiment: AlphaScreen bead proximity, C3b-Acceptor beads pre-incubated with antibody, then biotinylated fH and SA-Donor beads; blocked ligand: fH [C]. As to the method:
In brief, purified C3b and fP were conjugated to unconjugated acceptor or donor beads (PerkinElmer) using AminoLink Reductant (Pierce) during a 48 h incubation at room temperature. Beads were quenched using Carboxymethoxylamine Hemihydrochloride (Aldrich), and purified by centrifugation at 13000 rpm and three washes with 0.1M TBST. Purified fB(D24G/N260D) and fH were biotinylated during a 30 min incubation with 20-fold molar excess of NHS-Chromogenic-biotin (Pierce) at room temperature, and purified using Zeba 0.5 ml desalting columns (Pierce).
For C3b-C3b and C3b-fP proximity, Fabs or IgGs respectively were pre-incubated with C3b-Acceptor beads (20 μg/ml) for 60 min at room temperature. C3b-Donor beads or fP-Donor beads (20 μg/ml) were then added, and the plate was incubated overnight at room temperature before reading. For C3b-fB and C3b-fH proximity, antibodies were pre-incubated with C3b-Acceptor beads (20 μg/ml) for 60 minutes at room temperature. Biotinylated fB(D24G/N260D) or fH were then added, and incubated for 60 minutes at room temperature. SA-Donor beads were then added (20 μg/ml) and the plate was incubated overnight at room temperature before reading. Plates were read on the BMG Pherastar (ex=680, em=520-620).

Experiment [14] has as its target T3, human C3d. As to the kind of experiment: C3d binding ELISA, IgG titrated from about 0.006 to 100 nM.
Experiment [15] concerns the target T4, human C5. As to the kind of experiment: Direct ELISA at 2 ug/ml C5, 200 nM Fab.

B1: MOR09136 Fab (Fab, V domains shown)
VH: QVQLVQSGAEVKKPGSSVKVSCKASGGTFSSYTFSWVRQAPGQGLEWMGNILPIFGDANYAQKFQGRVTITADESTSTAYMELSSLRSEDTAVYYCARNKGAFYYMSTYPSLDVWGQGTLVTVSS
VL: DIQMTQSPSSLSASVGDRVTITCRASQNINYYLNWYQQKPGKAPKLLIYDAFSLQSGVPSRFSGSGSGTDFTLTISSLQPEDFATYYCQQSWSVPPFTFGQGTKVEIKR
notes: also called Fab 9136
In the case of B1, the “C3b Dep (nM), cyno serum, IC50” value in [1] was 3 nM. The “HA (nM), 10% cyno serum, IC50” value in experiment [1] was 52 nM. Besides, in [1], the “MAC Dep (nM), cyno serum, IC50” value worked out at 3 nM. Besides, the “C3b Dep (nM), human serum, IC50” value in [2] came out at 8 nM. For the same molecule, the “HA (nM), 10% human serum, IC50” value in [2] came out at 32 nM. Also, the “MAC Dep (nM), human serum, IC50” value in experiment [2] came to 2 nM. In addition, the Kd was determined as 0.016 nM in [3], 0.096 nM in experiment [4], 0.005 nM in experiment [5] and 0.075 nM in [6]. The binding result with human C3d [7] and with human C5 [8] was “no binding” each time.

B2: MOR09609 IgG (antibody, V domains shown)
VH: B1 VH with Q1E
VL: B1 VL
notes: Germlined human IgG1 with leucines 234 and 235 changed to alanines, kappa; also called antibody 9609
Consider B2, for which, in experiment [9], the “MAC deposition on zymosan, IC50” value is not above 5 nM; the “hemolysis of rabbit red blood cells, 10% human or cynomolgus serum, IC50” value was not above 50 nM; the “inhibition of C3a and C5a generation during hemolysis, IC50” value is not above 50 nM. The “fold binding selectivity for C3b over C3” value in experiment [10] is more than 1000 fold. Besides, in experiment [11], the Kd is 0.0228 nM, the off-rate constant (koff) is 4.6e-05 s⁻¹ and the kon was 2.02e+06 M⁻¹ s⁻¹. In addition, in [12], the Kd came out at 0.0022 nM, the koff worked out at 3.16e-06 s⁻¹ and the kon was determined as 1.44e+06 M⁻¹ s⁻¹. Besides, the “IC50 (read off the curve)” value in experiment [13] is approximately 0.1 nM. Besides, the binding result with human C3d [14] is reported as “no binding (tested: 100 nM)”.

B3: MOR09610 IgG (antibody, V domains shown)
VH: B1 VH with Q1E
VL: B1 VL with W92I, S93A
notes: Germlined human IgG1 with leucines 234 and 235 changed to alanines, kappa; also called antibody 9610
Turning to B3, in experiment [9], the “MAC deposition on zymosan, IC50” value is not above 5 nM; the “hemolysis of rabbit red blood cells, 10% human or cynomolgus serum, IC50” value was not above 50 nM; the “inhibition of C3a and C5a generation during hemolysis, IC50” value is not above 50 nM. Further, the “fold binding selectivity for C3b over C3” value in experiment [10] was more than 1000 fold. Further, in [11], the Kd stood at 0.0335 nM, the koff was 6.41e-05 s⁻¹ and the kon amounted to 1.91e+06 M⁻¹ s⁻¹. In [12], the Kd worked out at 0.0049 nM, the koff was found to be 4.02e-06 s⁻¹ and the kon was determined as 820000 M⁻¹ s⁻¹. Moreover, the “IC50 (read off the curve)” value in [13] was approximately 0.2 nM. In the experiment with human C3d [14], the binding result was “no binding (tested: 100 nM)”.

B4: 9609 (Fab, V domains shown)
VH: B1 VH with Q1E
VL: DIQMTQSPSSLSASVGDRVTITCRASQNINYYLNWYQQKPGKAPKLLIYDAFSLQSGVPSRFSGSGSGTDFTLTISSLQPEDFATYYCQQSWSVPPFTFGQGTKVEIK
notes: the IgG is m13; also called 9609 Fab format; MOR9609 Fab
With B4, the binding result with human C5 [15] is reported as “no binding (tested: 200 nM)”.

B5: MOR09141 Fab (Fab, V domains shown)
VH: B1 VH
VL: B1 VL with W92I, S93A
notes: also called Fab 9141
For B5, in experiment [1], the “C3b Dep (nM), cyno serum, IC50” value turned out to be 9 nM; the “HA (nM), 10% cyno serum, IC50” value was determined as 43 nM; the “MAC Dep (nM), cyno serum, IC50” value was determined as 2 nM. For the same molecule, in experiment [2], the “C3b Dep (nM), human serum, IC50” value is 7 nM; the “HA (nM), 10% human serum, IC50” value was determined as 27 nM; the “MAC Dep (nM), human serum, IC50” value was determined as 1 nM. For the same molecule, the affinity in experiment [3], expressed as Kd, was 0.02 nM. In addition, the Kd in experiment [4] came out at 0.1 nM. Moreover, the Kd in experiment [5] is 0.004 nM. The same molecule came in with a Kd in experiment [6] of 0.039 nM. In the experiment with human C3d [7], the binding result is listed as “no binding”. For the same molecule, the binding result with human C5 [8] is on record as “no binding”.

B6: MOR09373 Fab (Fab, V domains shown)
VH: QVQLVQSGAEVKKPGASVKVSCKASGYTFTSYSMHWVRQAPGQGLEWMGLINPYNGNTHYAQKFQGRVTMTRDTSISTAYMELSSLRSEDTAVYYCARMLRFDVWGQGTLVTVSS
VL: DIALTQPASVSGSPGQSITISCTGTSSDGGGYNYVSWYQQHPGKAPKLMIYGVSNRPSGVSNRFSGSKSGNTASLTISGLQAEDEADYYCQTYTRYSDSPVFGGGTKLTVLG
notes: also called Fab 9373
For B6, in experiment [1], the “C3b Dep (nM), cyno serum, IC50” value turned out to be 5 nM; the “HA (nM), 10% cyno serum, IC50” value was determined as 62 nM; the “MAC Dep (nM), cyno serum, IC50” value worked out at 6 nM. The molecule further had a Kd in experiment [3] of 0.078 nM. The molecule further registered a Kd in [5] of 0.009 nM. The binding result in the experiment with human C5 [8] is recorded as “no binding”.

B7: MOR09674 IgG (antibody, V domains shown)
VH: B6 VH with Q1E
VL: B6 VL with D1E, I2S
notes: Germlined human IgG1 with leucines 234 and 235 changed to alanines, lambda; also called antibody 9674
Turning to B7, in experiment [11], the Kd worked out at 0.00713 nM, the koff came out at 5.95e-05 s⁻¹ and the kon is 8.34e+06 M⁻¹ s⁻¹.
